{
  "source": "patent US20070134720A1",
  "about": "(published 2007)",
  "binders": {"B1": {"name": "[35S]-labeled Flag-P4HA1 fused protein (enzyme)", "chain": "HPGFFTSIGQMTDLIHTEKDLVTSLKDYIKAEEDKLEQIKKWAEKLDRLTSTATKDPEGFVGHPVNAFKLMKRLNTEWSELENLVLKDMSDGFISNLTIQRQYFPNDEDQVGAAKALLRLQDTYNLDTDTISKGNLPGVKHKSFLTAEDCFELGKVAYTEADYYHTELWMEQALRQLDEGEISTIDKVSVLDYLSYAVYQQGDLDKALLLTKKLLELDPEHQRANGNLKYFEYIMAKEKDVNKSASDDQSDQKTTPKKKGVAVDYLPERQKYEMLCRGEGIKMTPRRQKKLFCRYHDGNRNPKFILAPAKQEDEWDKPRIIRFHDIISDAEIEIVKDLAKPRLSRATVHDPETGKLTTAQYRVSKSAWLSGYENPVVSRINMRIQDLTGLDVSTAEELQVANYGVGGQYEPHFDFARKDEPDAFKELGTGNRIATWLFYMSDVSAGGATVFPEVGASVWPKKGTAVFWYNLFASGEGDYSTRHAACPVLVGNKWVSNKWLHERGQEFRRPCTLSELE", "modifications": "35S label from in vitro translation (the FIG. 2 legend prints 32P)", "notes": "Made with the TNT-coupled Translation System from pcDNA3-Flag-P4HA1; also called pcDNA3-Flag-P4HA1; [32P]-labeled Flag-P4HA1 fused protein; not shown: Flag tag"}, "B2": {"name": "partial peptide of the partially modified synoviolin (SEQ ID NO: 5) (peptide)", "peptide": "DNVCIICREEMVTGAKRLDCN", "modifications": "cysteine pairing not given here; also: partially modified, modification not given here"}},
  "key": {"GST protein": {"molecular_target": "T1, GST protein (UniProt P08515 1-218 = GST)", "T1 construct": "Control in the pulldown; also called control GST protein", "T1 sequence (P08515 whole entry, the tested form may be a part)": "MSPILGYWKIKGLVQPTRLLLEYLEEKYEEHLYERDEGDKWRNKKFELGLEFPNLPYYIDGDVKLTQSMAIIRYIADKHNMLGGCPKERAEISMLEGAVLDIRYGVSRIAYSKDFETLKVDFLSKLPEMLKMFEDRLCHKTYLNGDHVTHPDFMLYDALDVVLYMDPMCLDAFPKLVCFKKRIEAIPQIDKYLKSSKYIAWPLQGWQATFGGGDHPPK", "assay": "GST pulldown, SDS-PAGE and autoradiography", "procedure": "A [³⁵S]-labeled Flag-P4HA1 fused protein was prepared using the TNT-coupled Translation System (Promega Corporation) and pcDNA3-Flag-P4HA1. The fused protein was added, together with GST-Syno dTM, GST-Syno RING and GST protein, to a binding buffer containing 20 mM HEPES (pH 7.9), 100 mM NaCl, 1 mM EDTA, 0.05% Tween, 5% glycerol, 1 mM DTT, 0.2 mM NaVO₄, 5 mM NaF, and 1 mM PMSF and reacted at 4° C. for 16 hours. The resulting reaction product was developed over SDS-PAGE and its radioactivity was detected with an image analyzer (BAS2000, Fujix). The binding of GST-Syno dTM and GST-Syno RING fusion protein with [³⁵S]-labeled pcDNA3-Flag-P4HA1 was observed. In contrast, no binding was found between the control GST protein and pcDNA3-Flag-P4HA1 (FIG. 2)."}, "[1]": {"molecular_target": "T2, GST-fused P4HA1 protein (whole region of P4HA1) (human, UniProt P13674 18-534)", "T2 construct": "Made in E. coli; also called GST-P4HA1; GST-fused P4HA1 protein beads; not shown: GST (glutathione S-transferase) fusion partner of vector pGEX 4T-1", "assay": "HTRF competition: 60 ng MBP-synoviolin-His and 10 ng GST-P4HA1, XL665-labeled anti-His and Eu(K)-labeled anti-GST antibodies", "procedure": "A standard reaction mixture comprising 60 ng MBP-synoviolin-His, 10 ng GST-P4HA1, 1 mM DTT, 1 mM EDTA, 50 mM NaCl, 0.1% BSA, 0.3% DMSO, and a test compound in 15 μL of 50 mM HEPES (pH 7.5) solution was prepared using a 384-well plate. The reaction was initiated by adding 5 μL of a 50 mM HEPES solution comprising GST-P4HA1. After a 30 minute reaction at room temperature, 5 μL of a 50 mM HEPES solution comprising an Eu(K)-labeled anti-GST antibody (20000 B counts, CIS bio international), a XL665-labeled anti-His antibody (0.025 μg, CIS bio international), and 1 M K was added. The mixture was left to stand overnight at room temperature, and the fluorescence was measured using RUBYstar™."}},
  "note": "No end group written: not given here.",
  "data": [
    {"binder": "B1", "values": [
      {"measurement": "binding result", "setting": "GST protein", "result": "no binding"}
    ]},
    {"binder": "B2", "values": [
      {"measurement": "IC50", "setting": "[1]", "result": 167, "unit": "µg/mL"}
    ]}
  ]
}
